In series [1] the target is T1, BLM-core helicase (human, UniProt P54132 642-1290). The series is described as follows: fluorescence anisotropy.
The target in series [2] is T2, DHX36 (Bos, UniProt Q05B79 1-1010).
T2 sequence: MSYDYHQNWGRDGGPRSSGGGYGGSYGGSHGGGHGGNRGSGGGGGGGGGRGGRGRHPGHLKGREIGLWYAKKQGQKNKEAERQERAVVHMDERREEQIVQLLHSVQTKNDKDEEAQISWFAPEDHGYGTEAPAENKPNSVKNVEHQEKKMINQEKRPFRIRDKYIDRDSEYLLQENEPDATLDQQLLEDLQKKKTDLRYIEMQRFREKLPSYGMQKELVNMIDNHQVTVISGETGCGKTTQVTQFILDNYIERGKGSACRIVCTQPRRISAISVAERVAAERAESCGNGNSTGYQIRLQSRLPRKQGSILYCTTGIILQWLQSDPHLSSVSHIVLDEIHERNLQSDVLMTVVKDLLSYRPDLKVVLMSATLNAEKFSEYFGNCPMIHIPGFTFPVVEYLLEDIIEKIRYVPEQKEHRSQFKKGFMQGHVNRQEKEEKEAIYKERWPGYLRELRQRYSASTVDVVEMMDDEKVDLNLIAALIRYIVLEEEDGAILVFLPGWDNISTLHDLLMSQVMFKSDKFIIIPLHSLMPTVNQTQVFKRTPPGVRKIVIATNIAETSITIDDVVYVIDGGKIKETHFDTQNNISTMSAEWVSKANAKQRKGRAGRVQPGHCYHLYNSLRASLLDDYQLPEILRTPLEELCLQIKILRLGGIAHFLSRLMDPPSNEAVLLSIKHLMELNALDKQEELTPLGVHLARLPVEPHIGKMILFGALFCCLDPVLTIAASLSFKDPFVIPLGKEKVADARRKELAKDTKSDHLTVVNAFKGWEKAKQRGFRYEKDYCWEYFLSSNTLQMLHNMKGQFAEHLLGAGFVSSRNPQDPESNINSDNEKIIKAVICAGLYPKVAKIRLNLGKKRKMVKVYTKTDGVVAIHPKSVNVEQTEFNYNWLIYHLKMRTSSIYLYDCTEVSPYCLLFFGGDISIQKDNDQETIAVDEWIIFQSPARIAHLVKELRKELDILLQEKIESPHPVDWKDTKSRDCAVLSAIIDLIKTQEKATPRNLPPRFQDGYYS
Kind of series: fluorescence anisotropy. A general note: Polarisation of emitted light reports the rotation of a fluorescent probe.

The target of series [3] is T3, RecQ helicase (E. coli, UniProt P15043 1-609). Kind of series: fluorescence anisotropy.
T3 sequence (P15043 whole entry): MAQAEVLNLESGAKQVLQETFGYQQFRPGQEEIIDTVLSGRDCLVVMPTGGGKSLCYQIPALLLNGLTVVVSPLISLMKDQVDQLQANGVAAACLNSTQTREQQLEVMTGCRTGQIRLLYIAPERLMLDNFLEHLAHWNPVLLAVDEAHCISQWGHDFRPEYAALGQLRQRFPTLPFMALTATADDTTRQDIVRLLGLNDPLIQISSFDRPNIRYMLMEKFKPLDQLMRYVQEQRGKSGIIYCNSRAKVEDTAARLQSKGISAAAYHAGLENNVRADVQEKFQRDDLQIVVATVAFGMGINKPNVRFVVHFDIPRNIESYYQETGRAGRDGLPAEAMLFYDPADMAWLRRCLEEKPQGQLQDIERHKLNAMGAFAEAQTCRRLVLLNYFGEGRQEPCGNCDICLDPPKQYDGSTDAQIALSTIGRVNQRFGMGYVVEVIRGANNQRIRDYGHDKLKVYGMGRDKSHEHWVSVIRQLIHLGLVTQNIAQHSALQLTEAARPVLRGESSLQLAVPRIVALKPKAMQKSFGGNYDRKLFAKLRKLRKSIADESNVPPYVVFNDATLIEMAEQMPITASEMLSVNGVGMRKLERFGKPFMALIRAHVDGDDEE
The target in series [4] is T4, Rep helicase (E. coli, UniProt P09980 1-673). Kind of series: fluorescence anisotropy.
T4 sequence (P09980 whole entry): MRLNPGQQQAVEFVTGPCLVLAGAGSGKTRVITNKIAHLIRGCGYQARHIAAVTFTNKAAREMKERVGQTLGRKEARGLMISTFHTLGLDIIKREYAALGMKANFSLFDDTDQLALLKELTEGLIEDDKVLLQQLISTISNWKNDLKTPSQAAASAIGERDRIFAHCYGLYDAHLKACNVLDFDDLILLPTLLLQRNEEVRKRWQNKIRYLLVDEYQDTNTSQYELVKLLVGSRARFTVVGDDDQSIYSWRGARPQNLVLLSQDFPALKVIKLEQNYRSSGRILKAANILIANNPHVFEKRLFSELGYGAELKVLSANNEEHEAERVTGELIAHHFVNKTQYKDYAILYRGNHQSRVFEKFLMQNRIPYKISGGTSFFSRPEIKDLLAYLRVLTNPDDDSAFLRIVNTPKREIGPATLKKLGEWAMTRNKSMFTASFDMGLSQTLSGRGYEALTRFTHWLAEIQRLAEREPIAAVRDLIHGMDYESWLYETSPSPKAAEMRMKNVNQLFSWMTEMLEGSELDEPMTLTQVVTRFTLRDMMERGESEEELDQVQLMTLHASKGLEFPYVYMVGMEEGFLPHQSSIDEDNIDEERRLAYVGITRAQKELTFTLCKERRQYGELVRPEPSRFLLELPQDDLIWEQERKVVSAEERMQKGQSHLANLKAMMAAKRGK
For series [5], the target named is T2, DHX36. Kind of series: smFRET.
Series [6] concerns the target T3, RecQ helicase. Kind of series: smFRET.
The target in series [7] is T1, BLM-core helicase. The series is described as follows: smFRET.
Series [8] has as its target T4, Rep helicase. The series is described as follows: smFRET.
The target of series [9] is RPA (RPA1-RPA2-RPA3 heterotrimer) (human, UniProt P27694;P15927;P35244 1-616;1-270;1-121). The series is described as follows: smFRET.
Sequence of RPA (RPA1-RPA2-RPA3 heterotrimer) (P27694 whole entry, chain 1 of 3): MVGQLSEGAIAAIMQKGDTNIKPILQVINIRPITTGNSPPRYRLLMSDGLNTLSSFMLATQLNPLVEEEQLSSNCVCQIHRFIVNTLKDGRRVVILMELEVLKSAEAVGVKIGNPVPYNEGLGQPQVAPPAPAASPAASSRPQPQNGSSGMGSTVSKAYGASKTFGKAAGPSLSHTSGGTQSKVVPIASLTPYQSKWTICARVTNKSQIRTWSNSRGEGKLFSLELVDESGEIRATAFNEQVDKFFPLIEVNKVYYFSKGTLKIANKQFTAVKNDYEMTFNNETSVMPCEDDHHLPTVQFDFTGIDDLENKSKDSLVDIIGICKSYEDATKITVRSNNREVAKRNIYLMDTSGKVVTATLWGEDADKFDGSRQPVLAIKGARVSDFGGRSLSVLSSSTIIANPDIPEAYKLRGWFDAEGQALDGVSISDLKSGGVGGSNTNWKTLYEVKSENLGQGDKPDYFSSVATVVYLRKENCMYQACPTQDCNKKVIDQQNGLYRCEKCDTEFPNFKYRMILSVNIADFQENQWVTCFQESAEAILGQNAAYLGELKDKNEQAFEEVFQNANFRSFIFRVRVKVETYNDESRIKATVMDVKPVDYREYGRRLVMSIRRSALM
Sequence of RPA (RPA1-RPA2-RPA3 heterotrimer) (P15927 whole entry, chain 2 of 3): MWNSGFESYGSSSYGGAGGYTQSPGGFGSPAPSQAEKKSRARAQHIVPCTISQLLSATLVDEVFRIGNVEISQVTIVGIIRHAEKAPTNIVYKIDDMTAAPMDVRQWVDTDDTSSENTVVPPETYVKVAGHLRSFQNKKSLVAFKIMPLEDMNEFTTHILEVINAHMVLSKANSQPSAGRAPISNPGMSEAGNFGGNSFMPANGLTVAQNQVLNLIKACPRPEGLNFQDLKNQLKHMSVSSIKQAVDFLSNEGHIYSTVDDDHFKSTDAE
Sequence of RPA (RPA1-RPA2-RPA3 heterotrimer) (P35244 whole entry, chain 3 of 3): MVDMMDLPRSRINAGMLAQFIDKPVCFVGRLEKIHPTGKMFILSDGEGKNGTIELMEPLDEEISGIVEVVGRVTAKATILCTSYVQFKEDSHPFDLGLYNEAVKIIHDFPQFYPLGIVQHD

These results are taken from PMC8704484.

T1 sequence (P54132 642-1290): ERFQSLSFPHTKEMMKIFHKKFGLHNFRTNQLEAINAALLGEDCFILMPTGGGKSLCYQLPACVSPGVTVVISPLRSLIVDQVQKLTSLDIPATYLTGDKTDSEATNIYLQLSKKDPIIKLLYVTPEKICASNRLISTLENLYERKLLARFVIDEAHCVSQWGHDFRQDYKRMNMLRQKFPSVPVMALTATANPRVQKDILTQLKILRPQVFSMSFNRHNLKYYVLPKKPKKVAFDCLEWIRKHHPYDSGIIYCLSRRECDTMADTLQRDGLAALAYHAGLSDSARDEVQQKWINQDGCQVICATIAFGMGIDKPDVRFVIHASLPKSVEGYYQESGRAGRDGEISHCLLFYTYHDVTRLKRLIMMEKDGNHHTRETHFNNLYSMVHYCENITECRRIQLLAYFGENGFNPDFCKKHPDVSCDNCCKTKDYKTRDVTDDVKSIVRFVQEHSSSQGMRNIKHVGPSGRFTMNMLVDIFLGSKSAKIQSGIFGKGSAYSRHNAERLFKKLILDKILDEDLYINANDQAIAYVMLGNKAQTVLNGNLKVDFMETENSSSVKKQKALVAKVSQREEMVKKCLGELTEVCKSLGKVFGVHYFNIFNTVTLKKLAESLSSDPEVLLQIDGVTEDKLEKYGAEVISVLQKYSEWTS

One may read the Kd as the concentration at which binding is half-saturated. Read a low Kd as tighter binding. Regarding GGGCGCGGGAGGAAGGGGGCGGG (structured_DNA) [F-Bcl2-G4], the Kd in series [1] was 97.7 nM.

With CCCGCCCCCTTCCTCCCGCGCCC (structured_DNA) [F-Bcl2-IM], the binding result in series [2], in series [3] and in [4] was “binds” each time. In series [1], binding was put at a Kd of 22 nM.

B1: Duplex (24nt-F/24nt) (dsDNA)
DNA 1: GCCCTGGTGCCGACCAACGAAGGT
DNA 2: ACCTTCGTTGGTCGGCACCAGGGC
With B1, the binding result in series [1] is on record as “no binding”.

B2: d27Bcl2-IM / Stem (no loading tail) (mixed)
DNA 1: GCGTGGCACCGGTAATAGGAAATAGGATTCCCGCCCCCTTCCTCCCGCGCCCT
DNA 2: TCCTATTTCCTATTACCGGTGCCACGC
In the case of B2, the binding result in [5], in series [6], in [7] and in series [8] was “binds” in each case.

B3: d27Bcl2-Mut / Stem (mixed)
DNA 1: GCGTGGCACCGGTAATAGGAAATAGGATTCTCTCTCTCTTCCTCTCTCGCTC
DNA 2: TCCTATTTCCTATTACCGGTGCCACGC
With B3, the binding result in [9] is recorded as “binds”.
